Results: publication PMC4319893, “Targeting Protein-Protein Interactions with Trimeric Ligands: High Affinity Inhibitors of the MAGUK Protein Family” (PLoS ONE, 2015)

Columns and labels:
Assay in all cases: fluorescence polarisation; monomeric FP assay with monomeric fluorescent peptide probes (PSD-95 PDZ1-2, PDZ1-2-3 and single PDZ domains); 50 mM TRIS, 100 mM NaCl, 1 mM EDTA, 1 mM DTT
PSD-95 PDZ1-2 (human) = target: PSD-95 PDZ1-2 (human)
PSD-95 PDZ2 (human) = target: PSD-95 PDZ2 (human)
PSD-95 PDZ1 (human) = target: PSD-95 PDZ1 (human)
PSD-95 PDZ1-2-3 (human) = target: PSD-95 PDZ1-2-3 (human)

**Q.** Which results are given for CRIPT hexapeptide YKQTSV (1)?
**A.** fold lower affinity than 17 (PSD-95 PDZ1-2 (human)): > 1000 fold; affinity (PSD-95 PDZ2 (human)): 25 µM; affinity (PSD-95 PDZ1 (human)): 97 µM; fold lower affinity than 17 (PSD-95 PDZ1-2-3 (human)): > 1000 fold
